Data: the supplement of paper PMC9112550, “Optimization of the antimicrobial peptide Bac7 by deep mutational scanning” (BMC Biology, 2022)

Tested on: Escherichia coli TOP10
Assay: shrunken log2 fold change of peptide-encoding DNA abundance (4.5 h post-induction vs induction); higher = less antimicrobial activity (less host growth inhibition)
Details: time post-induction: 4.5 h; library: site-saturation at positions 5, 18, 19, 20
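Note: peptides expressed intracellularly from a pBAD plasmid library in pooled LB shake-flask culture, induced with 0.3% L-arabinose, DNA abundance read by NGS, three biological replicates, DESeq2 with apeglm shrinkage.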

Sequence | shrunken log2 fold change
RRIRQRPPRLPRPRPRPLWTPRP | -0.042
RRIRWRPPRLPRPRPRPHMHPRP | -0.36
RRIRLRPPRLPRPRPRPFEQPRP | 0.305
RRIRGRPPRLPRPRPRPDIKPRP | 0.547
RRIRCRPPRLPRPRPRPWDHPRP | -0.259
RRIRYRPPRLPRPRPRPSYAPRP | -0.149
RRIRCRPPRLPRPRPRPVSDPRP | 0.0185
RRIRNRPPRLPRPRPRPARYPRP | 0.0763
RRIRRRPPRLPRPRPRPRKLPRP | 0.253
RRIRLRPPRLPRPRPRPHGIPRP | -0.017
RRIRHRPPRLPRPRPRPYLTPRP | -0.556
RRIRLRPPRLPRPRPRPPFAPRP | 0.543
RRIRMRPPRLPRPRPRPEVYPRP | -0.0346
RRIRVRPPRLPRPRPRPSVNPRP | -0.291
RRIRARPPRLPRPRPRPNFEPRP | 0.356
RRIRVRPPRLPRPRPRPELLPRP | 0.0724
RRIRHRPPRLPRPRPRPMVFPRP | 0.14
RRIRSRPPRLPRPRPRPNQGPRP | 0.153
RRIRYRPPRLPRPRPRPICGPRP | -0.359
RRIRKRPPRLPRPRPRPLRIPRP | 0.648
RRIRSRPPRLPRPRPRPMQNPRP | 0.22
RRIRARPPRLPRPRPRPVNPPRP | -0.00864
RRIRIRPPRLPRPRPRPCKSPRP | -0.133
RRIRIRPPRLPRPRPRPGTVPRP | -0.624

Sequence | shrunken log2 fold change
RRIRKRPPRLPRPRPRPHTCPRP | 0.00412
RRIRGRPPRLPRPRPRPTIPPRP | -0.0601
RRIRIRPPRLPRPRPRPESLPRP | -0.23
RRIRKRPPRLPRPRPRPHYWPRP | -0.047
RRIRNRPPRLPRPRPRPFPQPRP | -0.186
RRIRMRPPRLPRPRPRPSSTPRP | 0.858
RRIRWRPPRLPRPRPRPFLAPRP | -0.0712
RRIRWRPPRLPRPRPRPTLCPRP | 0.127
RRIRVRPPRLPRPRPRPMHQPRP | 0.02
RRIRHRPPRLPRPRPRPAVFPRP | -0.0167
RRIRGRPPRLPRPRPRPGFQPRP | 0.157
RRIRCRPPRLPRPRPRPKQSPRP | 0.107
RRIRMRPPRLPRPRPRPPNHPRP | 0.206
RRIRIRPPRLPRPRPRPCGMPRP | 0.0729
RRIRYRPPRLPRPRPRPTSCPRP | -0.331
RRIRCRPPRLPRPRPRPQLDPRP | -0.142
RRIRGRPPRLPRPRPRPWYNPRP | -0.358
RRIRMRPPRLPRPRPRPNKCPRP | 0.216
RRIRSRPPRLPRPRPRPTNHPRP | -0.344
RRIRERPPRLPRPRPRPMNHPRP | -0.811
RRIRFRPPRLPRPRPRPGKQPRP | 0.0463
RRIRWRPPRLPRPRPRPFLSPRP | -0.0328
RRIRPRPPRLPRPRPRPWGWPRP | 0.149
RRIRWRPPRLPRPRPRPSYTPRP | -0.656

Sequence | shrunken log2 fold change
RRIRTRPPRLPRPRPRPWCDPRP | -0.596
RRIRQRPPRLPRPRPRPQNWPRP | 0.0213
RRIRIRPPRLPRPRPRPPTPPRP | 0.238
RRIRKRPPRLPRPRPRPHPGPRP | 0.293
RRIRKRPPRLPRPRPRPNDVPRP | 0.117
RRIRFRPPRLPRPRPRPIMRPRP | 0.0101
RRIRFRPPRLPRPRPRPRCMPRP | -0.124
RRIRKRPPRLPRPRPRPACSPRP | 0.341
RRIRVRPPRLPRPRPRPWCQPRP | -0.187
RRIRHRPPRLPRPRPRPEHFPRP | -0.00153
RRIRNRPPRLPRPRPRPFICPRP | -0.38
RRIRVRPPRLPRPRPRPEECPRP | 0.0155
RRIRGRPPRLPRPRPRPTQKPRP | 1.22
RRIRVRPPRLPRPRPRPFWCPRP | -0.121
RRIRDRPPRLPRPRPRPHQAPRP | -0.0175
RRIRARPPRLPRPRPRPSESPRP | 0.0591
RRIRCRPPRLPRPRPRPLNEPRP | -0.0566
RRIRDRPPRLPRPRPRPCVKPRP | -0.161
RRIRSRPPRLPRPRPRPESWPRP | 0.762
RRIRPRPPRLPRPRPRPNNFPRP | -0.364
RRIRMRPPRLPRPRPRPFFCPRP | 0.0186
RRIRARPPRLPRPRPRPWWCPRP | -0.0725
RRIRNRPPRLPRPRPRPRGTPRP | 0.224
RRIRKRPPRLPRPRPRPLPCPRP | 0.213

Sequence | shrunken log2 fold change
RRIRKRPPRLPRPRPRPDISPRP | -0.0841
RRIRERPPRLPRPRPRPNGLPRP | -0.0319
RRIRMRPPRLPRPRPRPKHAPRP | 3.03
RRIRERPPRLPRPRPRPCDIPRP | -0.329
RRIRKRPPRLPRPRPRPGKVPRP | 0.248
RRIRQRPPRLPRPRPRPILVPRP | -0.0138
RRIRDRPPRLPRPRPRPSTCPRP | -0.0465
RRIRNRPPRLPRPRPRPKENPRP | -0.409
RRIRDRPPRLPRPRPRPQVSPRP | 0.0416
RRIRYRPPRLPRPRPRPAIPPRP | -0.66
RRIRARPPRLPRPRPRPTASPRP | 0.74
RRIRQRPPRLPRPRPRPCKKPRP | 0.0212
RRIRFRPPRLPRPRPRPSETPRP | -0.13
RRIRHRPPRLPRPRPRPDKGPRP | 0.0349
RRIRRRPPRLPRPRPRPKKGPRP | 0.403
RRIRNRPPRLPRPRPRPPVQPRP | 0.0479
RRIRIRPPRLPRPRPRPGEFPRP | -0.0994
RRIRTRPPRLPRPRPRPQGSPRP | -0.0161
RRIRNRPPRLPRPRPRPPCEPRP | 0.0665
RRIRCRPPRLPRPRPRPKDGPRP | 0.408
RRIRQRPPRLPRPRPRPNDAPRP | -0.0276
RRIRNRPPRLPRPRPRPMYLPRP | -0.251
RRIRVRPPRLPRPRPRPSRQPRP | -0.0237
